Substrate in data set [1]: N[C@@H](CSSC[C@H](N)C(=O)O)C(=O)O
Kind of data set: cells, lysate or membranes. The note with it: cellular transport (Vmax given per cell).

Substrate in data set [2]: N[C@@H](CSSC[C@H](N)C(=O)O)C(=O)O
Kind of data set: cells, lysate or membranes. The data set is classed as cell-based, Homo sapiens. The note with it: cellular transport (Vmax given per cell).

Data set [3] deals with the molecule itself. As to the kind of experiment: cryo-EM structure; apo state; SLC7A13 and SLC3A1 co-expressed in Expi293 cells, complex purified by affinity purification and SEC; overall resolution 2.64 Å.

B1: SLC7A11-SLC3A2 complex (Homo sapiens) (protein)
chain: MVRKPVVSTISKGGYLQGNVNGRLPSLGNKEPPGQEKVQLKRKVTLLRGVSIIIGTIIGAGIFISPKGVLQNTGSVGMSLTIWTVCGVLSLFGALSYAELGTTIKKSGGHYTYILEVFGPLPAFVRVWVELLIIRPAATAVISLAFGRYILEPFFIQCEIPELAIKLITAVGITVVMVLNSMSVSWSARIQIFLTFCKLTAILIIIVPGVMQLIKGQTQNFKDAFSGRDSSITRLPLAFYYGMYAYAGWFYLNFVTEEVENPEKTIPLAICISMAIVTIGYVLTNVAYFTTINAEELLLSNAVAVTFSERLLGNFSLAVPIFVALSCFGSMNGGVFAVSRLFYVASREGHLPEILSMIHVRKHTPLPAVIVLHPLTMIMLFSGDLDSLLNFLSFARWLFIGLAVAGLIYLRYKCPDMHRPFKVPLFIPALFSFTCLFMVALSLYSDPFSTGIGFVITLTGVPAYYLFIIWDKKPRWFRIMSEKITRTLQIILEVVPEEDKL
On to B1, for which the Km – broadly, the concentration of substrate that gives half-maximal velocity – in data set [1] is 67.57 ± 21.95 µM.

B2: SLC7A9-SLC3A1 complex (Homo sapiens) (protein)
chain: MGDTGLRKRREDEKSIQSQEPKTTSLQKELGLISGISIIVGTIIGSGIFVSPKSVLSNTEAVGPCLIIWAACGVLATLGALCFAELGTMITKSGGEYPYLMEAYGPIPAYLFSWASLIVIKPTSFAIICLSFSEYVCAPFYVGCKPPQIVVKCLAAAAILFISTVNSLSVRLGSYVQNIFTAAKLVIVAIIIISGLVLLAQGNTKNFDNSFEGAQLSVGAISLAFYNGLWAYDGWNQLNYITEELRNPYRNLPLAIIIGIPLVTACYILMNVSYFTVMTATELLQSQAVAVTFGDRVLYPASWIVPLFVAFSTIGAANGTCFTAGRLIYVAGREGHMLKVLSYISVRRLTPAPAIIFYGIIATIYIIPGDINSLVNYFSFAAWLFYGLTILGLIVMRFTRKELERPIKVPVVIPVLMTLISVFLVLAPIISKPTWEYLYCVLFILSGLLFYFLFVHYKFGWAQKISKPITMHLQMLMEVVPPEEDPE
Regarding B2, the Km in data set [1] was 276.9 ± 107.6 µM.

B3: SLC7A13-SLC3A1 complex (Homo sapiens) (protein)
chain: MDRGEKIQLKRVFGYWWGTSFLLINIIGAGIFVSPKGVLAYSCMNVGVSLCVWAGCAILAMTSTLCSAEISISFPCSGAQYYFLKRYFGSTVAFLNLWTSLFLGSGVVAGQALLLAEYSIQPFFPSCSVPKLPKKCLALAMLWIVGILTSRGVKEVTWLQIASSVLKVSILSFISLTGVVFLIRGKKENVERFQNAFDAELPDISHLIQAIFQGYFAYSGGACFTLIAGELKKPRTTIPKCIFTALPLVTVVYLLVNISYLTVLTPREILSSDAVAITWADRAFPSLAWIMPFAISTSLFSNLLISIFKSSRPIYLASQEGQLPLLFNTLNSHSSPFTAVLLLVTLGSLAIILTSLIDLINYIFFTGSLWSILLMIGILRRRYQEPNLSIPYKVFLSFPLATIVIDVGLVVIPLVKSPNVHYVYVLLLVLSGLLFYIPLIHFKIRLAWFEKMTCYLQLLFNICLPDVSEE
notes: heterodimeric light/heavy chain transporter, dimer of heterodimers; ectopically expressed in HEK293T / HEK293 cells (Expi293 for cryo-EM); with Amino acid transporter heavy chain SLC3A1
Take B3: in data set [2], the Km came out at 126.5 ± 33.25 µM.

B4: SLC3A1 (natural protein, human)
chain: AEDKSKRDSIEMSMKGCQTNNGFVHNEDILEQTPDPGSSTDNLKHSTRGILGSQEPDFKGVQPYAGMPKEVLFQFSGQARYRIPREILFWLTVASVLVLIAATIAIIALSPKCLDWWQEGPMYQIYPRSFKDSNKDGNGDLKGIQDKLDYITALNIKTVWITSFYKSSLKDFRYGVEDFREVDPIFGTMEDFENLVAAIHDKGLKLIIDFIPNHTSDKHIWFQLSRTRTGKYTDYYIWHDCTHENGKTIPPNNWLSVYGNSSWHFDEVRNQCYFHQFMKEQPDLNFRNPDVQEEIKEILRFWLTKGVDGFSLDAVKFLLEAKHLRDEIQVNKTQIPDTVTQYSELYHDFTTTQVGMHDIVRSFRQTMDQYSTEPGRYRFMGTEAYAESIDRTVMYYGLPFIQEADFPFNNYLSMLDTVSGNSVYEVITSWMENMPEGKWPNWMIGGPDSSRLTSRLGNQYVNVMNMLLFTLPGTPITYYGEEIGMGNIVAANLNESYDINTLRSKSPMQWDNSSNAGFSEASNTWLPTNSDYHTVNVDVQKTQPRSALKLYQDLSLLHANELLLNRGWFCHLRNDSHYVVYTRELDGIDRIFIVVLNFGESTLLNLHNMISGLPAKMRIRLSTNSADKGSKVDTSGIFLDKGEGLIFEHNTKNLLHRQTAFRDRCFVSNRACYSSVLNILYTSC
modifications: five glycosylation sites in the extracellular domain
notes: SLC3A1 (rBAT), human; heavy chain subunit: small N-terminal cytoplasmic region, a single TM and a large extracellular domain; Two copies stand in the solved hetero-tetramer; also called rBAT; heavy chain of the SLC7A13-SLC3A1 cystine transporter
In the case of B4, the stoichiometry N – broadly, a count of units in the complex or per binding partner – in data set [3] was 2.

These data come from article PMC12959773 (Protein & Cell, 2025).
